Measurements from article PMC10397247.
Where two headings read alike, the source gives them in different places.

T1: zCON9_B
T1 chain: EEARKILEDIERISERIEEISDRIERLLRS

T2: zCON9_D
T2 chain: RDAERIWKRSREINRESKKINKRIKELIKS


Columns and labels:
[1] = target: T1, zCON9_B; test: two-hybrid library CCmax;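 also: natural log of median RNA to DNA barcode read ratio; higher means stronger binding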
[2] = target: T2, zCON9_D; test: two-hybrid library CCmax;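 also: natural log of median RNA to DNA barcode read ratio; higher means stronger binding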

interaction score [1]	interaction score [2]	interaction score ([2]; mean of both orientations)	Binder
-2.01	-2.12		PKKEAEELAEESEELHDRSEKLHERAEQ [zCON9_A]
2		-1.44	EEARKILEDIERISERIEEISDRIERLLRS [zCON9_B]
